This test deals with T1, APP-TAP-AICD (human, UniProt P05067-4 18-695).
T1 construct: Bait purified from brain homogenate of hemizygous transgenic mice via streptavidin; full-length APP and cleaved C-terminal stubs are isolated; also called TAP-tagged full-length human APP
As to the kind of experiment: streptavidin purification of APP-TAP-AICD from brain homogenate; iTRAQ 116/114, transgenic mouse 75 vs control mouse 72; MALDI-TOF/TOF.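 Further: relative protein abundance in the transgenic versus control pull-down, limited to proteins with high quality scores and above-average enrichment, without full normalization across the whole measurement.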

B1: Guanine nucleotide-binding protein G(o); alpha subunit 1 (other, mouse, UniProt P18872 2-354, looked up)
chain: GCTLSAEERAALERSKAIEKNLKEDGISAAKDVKLLLLGAGESGKSTIVKQMKIIHEDGFSGEDVKQYKPVVYSNTIQSLAAIVRAMDTLGVEYGDKERKTDSKMVCDVVSRMEDTEPFSAELLSAMMRLWGDSGIQECFNRSREYQLNDSAKYYLDSLDRIGAGDYQPTEQDILRTRVKTTGIVETHFTFKNLHFRLFDVGGQRSERKKWIHCFEDVTAIIFCVALSGYDQVLHEDETTNRMHESLMLFDSICNNKFFIDTSIILFLNKKDLFGEKIKKSPLTICFPEYPGSNTYEDAAAYIQTQFESKNRSPNKEIYCHMTCATDTNNIQVVFDAVTDIIIANNLRGCGLY
notes: also called GNAO1_MOUSE
As for B1, the iTRAQ ratio turned out to be 3.38.

(Values after patent publication US20100169988A1 (published 2010).)
